Assay results from US10400022B2, “Neuropilin-1 specific binding peptide, fusion protein fused with same, and use thereof” (AJOU UNIVERSITY INDUSTRY-ACADEMIC COOPERATION FOUNDATION, priority 2015, dated 2019).

B1: VEGF165A: vascular endothelial cell growth factor-A, NRP1 ligand used as control (protein)
chain: APMAEGGGQNHHEVVKFMDVYQRSYCHPIETLVDIFQEYPDEIEYIFKPSCVPLMRCGGCCNDEGLECVPTEESNITMQIMRIKPHQGQHIGEMSFLQHNKCECRPKKDRARQENPCGPCSERRKHLFVQDPQTCKCSCKNTDSRCKARQLELNERTCRCDKPRR

Tests used:
FaDu cells = test: Tumor tissue penetration of co-administered doxorubicin (IHC); format: in vivo, Balb/c nude mice; conditions: doxorubicin 10 mg/kg with 2.5 mg/kg PBS, Fc or Fc-TPP11 intravenously, 1 hour
Protocol: In order to examine tumor tissue penetration of a small-molecule drug co-administered with the Fc-TPP11 constructed in the above-described experiment, immunohistochemistry was performed. Specifically, each of Balb/c nude mice was injected subcutaneously with 5×10^6 FaDu cells, and after about 15 days, when the tumor volume reached about 300 to 400 mm^3, 10 mg/kg of the anticancer drug doxorubicin and 2.5 mg/kg of each of PBS, Fc and Fc-TPP11 were injected intravenously into each mouse. At 1 hour after injection, the mouse heart was perfused with PBS and perfused with 4% para-formaldehyde to fix tissue. Next, the tumor tissue was extracted and subjected to immunohistochemistry. The extracted tumor was sectioned to a thickness of 20 μm by a frozen-section method, and the blood vessels were stained with the primary antibody CD31 (BD Pharmingen) and a FITC (green fluorescence)-labeled secondary antibody recognizing the same.
According to the same method as that used for FIG. 18(A), doxorubicin and each of PBS, Fc and Fc-TPP11 were injected intravenously into mice, and the mouse heart was perfused with PBS, and the tumor tissue was extracted. […] Then, the tissue was thawed at 37° C. and centrifuged, and the fluorescence (Excitation 485 nm/emission 528 nm) of the supernatant was measured to quantify the amount of doxorubicin penetrated.

HUVEC cells [1] = test: Transwell invasion assay of vascular endothelial cells; format: cell-based, human; conditions: VEGF165A 20 ng/ml, 1 μM, 12 hours
Protocol: Additionally, in order to examine the inhibitory activity of Fc-TPP11 against VEGF165A-induced invasion of vascular endothelial cells, a transwell assay was performed. A transwell (Corning Costar, USA) having a polycarbonate membrane with a […] pore size was used. Matrigel (Corning Costar, USA) was coated on the lower layer surface of the filter at a ratio of 1:10 and polymerized for 2 hours under the conditions of 37° C. and 5% CO2, and then 5×10^4 HUVEC cells and each of Fc and Fc-TPP11 (1 μM) were seeded in EBM2 medium in the upper layer well. In addition, EBM2 medium containing VEGF165A (20 ng/ml) was added to the lower layer well. Next, the cells were incubated for 12 hours under the conditions of 37° C. and 5% CO2, and then unmoved cells in the upper layer well were removed with cotton, and the cells were fixed with 4% para-formaldehyde. Then, the cells were stained with crystal violet.

HUVEC cells [2] = test: Tube formation assay in HUVEC; format: cell-based, human; conditions: VEGF165A 20 ng/ml, Fc-TPP11 1 μM, 8 hours
Protocol: VEGF165A is known to […] angiogenesis using NRP1 as a co-receptor. Based on this, as a method capable of observing angiogenesis in vitro, a tube formation assay was performed. In an experimental method, 50 μl of ECMatrix was added to a 96-well plate and polymerized at 37° C. for 2 hours. After 2 hours, HUVEC cells were suspended in EBM2 medium, mixed with VEGF165A (20 ng/ml), Fc or Fc-TPP11 (1 μM), plated on the ECMatrix at a density of 1×10^4 cells per well, and incubated for 8 hours. The incubated cells were imaged with a microscope.

VE-cadherin = test: Western blot of VE-cadherin in HUVEC; format: cell-based, human; conditions: 10 minutes
Protocol: Specifically, 5×10^5 HUVEC cells were seeded into each well of a 6-well plate and incubated for 24 hours, […] constant Fc region and the selected peptide that binds specifically to NRP1, for 10 minutes, followed by Western blot analysis. After SDS-PAGE, the gel was transferred to a PVDF membrane, and detection was performed using primary antibodies (SantaCruz) that recognize VE-cadherin and β-actin and using HRP-conjugated secondary antibody (SantaCruz), and analysis was performed using ImageQuant LAS4000 mini (GE Healthcare).

[3] = test system: human umbilical vein endothelial cells (HUVECs); test: Transwell assay of penetration of vascular endothelial cells (dextran-FITC); format: cell-based; conditions: 1 μM for 30 minutes (VEGF165A about 1.3 nM); dextran-FITC fluorescence in lower chamber
Protocol: Specifically, 5×10^4 human umbilical vein endothelial cells (HUVECs) were seeded into the upper chamber of a transwell plate (Corning) and incubated in EGM2 for 3 days under the conditions of 37° C. and 5% CO2. […] Then, 50 μl of dextran-FITC (Sigma) was added to the upper chamber. After 30 minutes, based on the principle according to which the fluorescent substance would be observed when penetration into the vascular endothelial cells was increased, the medium was sampled from the lower chamber and the fluorescence thereof was measured.

HUVEC cells [4] = test: Wound healing assay (migration of vascular endothelial cells); format: cell-based, human; conditions: VEGF165A 20 ng/ml, 1 μM, 18 hours
Protocol: In addition to the results obtained in Examples 8(1) and 8(2), in order to examine the inhibitory activity of Fc-TPP11 against VEGF165A-induced migration of vascular endothelial cells, a wound healing assay was performed. In an experimental method, 5×10^5 HUVEC cells were seeded into each well of a 6-well plate, and then incubated in 0.5% serum EBM2 medium containing 1 μg/ml mitomycin c for 1 hour until the cells were saturated (95% or more) in the plate. The dish bottom was linearly rubbed with a yellow tip to make injury lines having a uniform width. Then, the cells were washed with PBS such that the cells were detached from the bottom. After removal of PBS, medium was added slowly to the HUVEC cells. The cells were treated with 0 or 20 ng/ml of VEGF165A, treated with each of Fc and Fc-TPP11 (1 μM), and then incubated under the conditions of 37° C. and 5% CO2. The cells were imaged with a microscope (Primo vert, Carl Zeiss co., Germany) at 0 hour and 18 hours, and the distance between both ends, measured with a computer program (AxioVision LE, Carl Zeiss co., Germany) included in the microscope, was statistically processed.

| Molecule | tumor tissue penetration of doxorubicin (FaDu cells) | invasion activity of vascular endothelial cells (HUVEC cells [1]) | tube formation (HUVEC cells [2]) | change in VE-cadherin (VE-cadherin) | ability to penetrate vascular endothelial cells [3] | migration activity of vascular endothelial cells (HUVEC cells [4]) |
| --- | --- | --- | --- | --- | --- | --- |
| COc1cccc2c1C(=O)c1c(O)c3c(c(O)c1C2=O)C[C@@](O)(C(=O)CO)C[C@@H]3O[C@H]1C[C@H](N)[C@H](O)[C@H](C)O1 [doxorubicin] | little or no red fluorescence was observed |  |  |  |  |  |
| B1 |  | increased the invasion activity of vascular endothelial cells | tube formation increased | a decrease in VE-cadherin was observed | had an increased ability to penetrate vascular endothelial cells | increased the migration activity of vascular endothelial cells |
